According to article doi:10.1101/2022.11.26.518022 (bioRxiv, 2022):

How the values were obtained:
[1] = biological target: T1, Unr CSD789 (A756-D990) (Drosophila, UniProt B7Z0E2 756-990); assay: NMR titration
T1 sequence (looked up): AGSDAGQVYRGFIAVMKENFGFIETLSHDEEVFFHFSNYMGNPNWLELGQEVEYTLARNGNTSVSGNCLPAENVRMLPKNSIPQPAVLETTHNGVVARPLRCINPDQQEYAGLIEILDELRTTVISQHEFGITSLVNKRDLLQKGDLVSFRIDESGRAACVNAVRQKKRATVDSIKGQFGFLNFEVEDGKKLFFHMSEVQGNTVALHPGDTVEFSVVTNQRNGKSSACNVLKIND

[2] = biological target: T2, Unr CSD78 (A756-K922) (Drosophila, UniProt B7Z0E2 756-922); assay: NMR titration
T2 sequence (looked up): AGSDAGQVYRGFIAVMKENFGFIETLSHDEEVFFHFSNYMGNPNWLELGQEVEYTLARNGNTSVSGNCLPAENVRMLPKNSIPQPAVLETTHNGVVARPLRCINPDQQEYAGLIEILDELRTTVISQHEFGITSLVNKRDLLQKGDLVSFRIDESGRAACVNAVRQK

binding result [1]: binds | binding result [2]: binds
B1: pAbp RRM3 (G176-A263) (domain or fragment)
chain: not shown
